Assay: soluble on expression in E. coli; label from the status in PepcDB or PDB records

Sequence | soluble on expression in E. coli
MEINIFNTNKKYDVIYADPPWRYNDRKCNGACEHHYDTMTLEEIKKLPIKELCEKDCVLFLWTTYPMLKEALEVMEAWGFKYKSIAFQWIKLNRSGNGKFFGLGRWTRGNTEPCLLAVKGKPSRKSNSVSQLIEYPLGKHSAKPPITRDKIKELMGEECKCLELFARNNIEGWDCWGNEVGKMDEVILEHHHHHH | soluble
MSIEQYFQHLACAPTSLNLIWFTVEMSELAKELPSKEAKTGLIKSIAHILHDEKFEKIRGDEAMLNLFEMLAKCSTKIGGAEVYKQAYGLDLFNYYKEFYFQWAHECGKIKSVSQFRTVFFLARSQLFYHLSPISIEKDFENIFQQYFGKLSMHHCLERTETLNKLFAGCSVEEFASAENVMSFGNSRELSGRSVDVRPNHRVLEVARGTMMSSSEISPNKSDSSVLLNKSPPTNSPIIKFGTYPKIHLQNVSSSMLNARRRQLTATVTTVDSQKGKPTFANETY | not soluble
MGSDKIHHHHHHVGEHGNVNLRAENCRLKGKDIIVLYRDELDLSSEQWLELLQDNTVFKDEDILLVLELYKCNNCREYASVLADSLGVASHSVLNLQIGRLGKRIIARYPDIKYPTREDGVVRYWHIPFWGEDGEKKGHYYWQLRPELKEALKMLKSNQKRKIFALHGEVQLAQEVDEEQTEKLYEGAKIQIVVNAYERNIKARQICIDKYGYKCSICDFDFEEFYGMLGSDYIEVHHLIPLHEINKEYRVDPINDLRPVCPNCHAMLHRAGISYEELKNKIESEC | not soluble
MSYLDTATDLPNQTLFLEYLNIALSNARRHHAQVGVLLCQINNWSDLKRKRGDAVANAFLQEAGQKLKSNLRNGDIVSRWDKDEFIFLVSKVQDTSSLLGIAQRLMKPVLAPVTAGGRPFQPEITYGVALYPVDGEQVNDLIGHIRENLQQLLPQPTNPGSGLEHHHHHH | soluble
MGSDKIHHHHHHMDNNNSYLWPVTYDEVSHELTKWKFYKHFTKISGSVYLKNDLIDDPVLVTQALIKRCPQGVLRGYAALNRRGYQLFDDPWMPIISISGEPRTRKTTNVGKIIRRETPENLRRSGEFTLVSDSQALLDVFSLHGLDSFEHQVALIDHLIRQCPDLKDEIKKVPELRKHAEFTDEFAESPPESRLRVRLHMQGYRNFMPQVRVELEGRRFYLDLADPVWGVALEYNGGWHYTAEQRSKDAFRKNALKNAGWDVFEVTSKTLQSQQAWDYFFQQVRVAIQRKYADRKRRLPMQTVS | not soluble
MSLTANREAIDMARVAAGAAAAKLADDVVVIDVSGQLVITDCFVIASGSNERQVNAIVDEVEEKMRQAGYRPARREGAREGRWTLLDYRDIVVHIQHQDDRNFYALDRLWGDCPVVPVDLSANSAGAQEGHHHHHH | soluble
MPGSDAGPRRRGVHEQRRNRMSNEAKCPFHQAAQNGTSNRDWWPNQLDLSILHRHSSLSDPMGKDFNYAQAFEKLDLAAVKRDLHALMTTSQDWWPADFGHYGGLFIRMAWHSAGTYRTADGRGGAGEGQQRFAPLNSWPDNANLDKARRLLWPIKQKYGRAISWADLLILTGNVALESMGFKTFGFAGGRADTWEPEDVYWGSEKIWLELSGGPNSRYSGDRQLENPLAAVQMGLIYVNPEGPDGNPDPVAAARDIRDTFARMAMNDEETVALIAGGHTFGKTHGAGPASNVGAEPEAAGIEAQGLGWKSAYRTGKGADAITTGLEVTWTTTPTQWSHNFFENLFGYEWELTKSPAGAHQWVAKGADAVIPDAFDPSKKHRPTMLTTDLSLRFDPAYEKISRRFHENPEQFADAFARAWFKLTHRDMGPRARYLGPEVPAEVLLWQDPIPAVDHPLIDAADAAELKAKVLASGLTVSQLVSTAWAAASTFRGSDKRGGANGARIRLAPQKDWEANQPEQLAAVLETLEAIRTAFNGAQRGGKQVSLADLIVLAGCAGVEQAAKNAGHAVTVPFAPGRADASQEQTDVESMAVLEPVADGFRNYLKGKYRVPAEVLLVDKAQLLTLSAPEMTVLLGGLRVLGANVGQSRHGVFTAREQALTNDFFVNLLDMGTEWKPTAADADVFEGRDRATGELKWTGTRVDLVFGSHSQLRALAEVYGSADAQEKFVRDFVAVWNKVMNLDRFDLA | soluble
MGSDKIHHHHHHMLEFLSQQKPKILIIGDFMVDNYTWCDCSRISPEAPVLIAKTLKEDKRLGGAANVYANLKSLGADVFALGVVGDDESGKFLQENLKGEFLIQKGRKTPFKNRIMAHNQQVLRLDEEDISEILLENELIALFDEKIKDFKAVVLSDYAKGVLTPKVCKAVIEKAKVLNIPVLVDPKGSDFNKYSGATLLTPNKKEALEALKFENLEGENLEKGIKKLKEDFSLRYSIITLSEAGIALFDEGLKIAPAKALEVYDVTGAGDSVIAVLAFCLANEIEIFKACELANEAAAVVVSKIGSVSVSFDEIKSFKRVDFEKKIKSKEELLVLLKQNNKKIVFTNGCFDIVHFGHIKYLDKAKRLGDVLIVGLNSDASVKRLKGESRPVNSEFQRACMLAAFYFVDFVVIFDEDTPLELISFLKPDILVKGADYKDKLVVGADIVSRVELIDFEEGFSTSKIIEKIKDKK | not soluble
MALLEICCYSMECALTAQQNGADRVELCAAPKEGGLTPSLGVLKSVRQRVTIPVHPIIRPRGGDFCYSDGEFAAILEDVRTVRELGFPGLVTGVLDVDGNVDMPRMEKIMAAAGPLAVTFHRAFDMCANPLYTLNNLAELGIARVLTSGQKSDALQGLSKIMELIAHRDAPIIMAGAGVRAENLHHFLDAGVLEVHSSAGAWQASPMRYRNQGLSMSSDEHADEYSRYIVDGAAVAEMKGIIERHQAKLEHHHHHH | soluble
ERVVINISGLRFETQLKTLAQFPETLLGDPKKRMRYFDPLRNEYFFDRNRPSFDAILYYYQSGGRLRRPVNVPLDIFSEEIRFYELGEEAMEMFREDEG | soluble
MCESDKLHDEINVIDIKIYPNRFLKPKTTELLLNKICGLEGYVRFLIHGPSLPKKVFYGPGKGHDVNHGDRKSILVNGNGIDLKVMVGEIIITVELDKFNDFMNQLEDILTETLSVEYSLLVGIFTRTTSTISDYLKYGIGFENLIDKRYIGLIDSRARSSESISIIKLEHHHHHH | not soluble
MGSDKIHHHHHHNDDPGKDPDVVTYDFKNLPADSGAKPTEDQMSAVVATFVDEVALPTYKDMLTKMTAYKNAVDKFIASGSKNDLADACDAWRAVRVPWEQSEAFLFGVADLAQLDPSLDSWPLDKNGIEEIIATGEFSKISGAVDEDAEDGPQNLRGFHTAEKMLFLDGEPRDLETSPFAKNELEYLKLVSERMLSDTQDLYNGWLKGLGTSDVPSSYAEAMKKHDGSAYSIGNVYQAIELMLNGNNGMAGISNEVGSAKITDPVTAWNGSNKDATDPNNPGVLAVESWYSWNSLDDYKNNIVSIKNAYFGGRDLDEESASESSLHALTKMINPTLDSLMVVQIDKTIDAINAIGYPFRNNLGDTEHINTATEACADLTTGLGVVKSKFTN | not soluble
GSHMGKDCIMHGYMSKMGNPFLTQWQRRYFYLFPNRLEWRGEGEAPQSLLTMEEIQSVEETQIKERKCLLLKIRGGKQFILQCDSDPELVQWKKELRDAYREAQQLVQRVPKMKNKPRS | soluble
MSLSRQIRYYGTGTEKVEEELQDLLPDANIIRMDNDTTRKKGAHAKLLAQFGSGEADILIGTQMIAKGLDFPNVTLVGVLNADTALGLPDFRASERTFQLLTQVSGRAGRAEKSGHVYIQTFNPDHYAIRFAQHHDYEGFFKYEMQMRHRGGYPPYYFTVQITASDLDEGVAAKRMYQLLQWLRPRLAPSTILLGPTPKPIARVNRRYYYQIVIKYKQEPNLAQTLTTLLHETQAQQRQGLQIGIDVEPLHFMEGHHHHHH | not soluble
MNEDIDMLIIANDLKQRGRKSIISGKFIFINMANEYEYVVYPVNENKTLSVKELEEFVDFSNRIKKKGVIAIVDKYGDVTYYLLSEINLGKK | soluble
MGSDKIHHHHHHMTFVKKALSPDEYGEVLFQHDWMRGEPSDVVCELLAKSERLFFRQDDVLFREGDKMQHCLLVETGKLQAFRHTYGGDEKIFGQFERGEFVAIAAVFMDHGRFPMNIRALSDGHTLMIPRQDIHQFCLQRPELALRLLNYLGKKLYSTINQIDWLTSSSAPQRLADYLLRQHHIQQTQHLTLPVSRGQLATSLGMRGETLSRLMSDWKRQGHITYRGHQVELCDLNYLKELAAEARRTF | not soluble
MSLASRQAIGFIAPSLAGEFMTGVMEGILQSLRKHQYDLIAVQGAPQHLINNQLAKQHIKAWIVIIDPTGLNELATNMPAVVISAPNAGERFPLVMPDNNQSARAMVEHLIEHGHSKIAFVGNFNNSDMRDRYTVYCDVLNEHSITPNPAWVVDVGDYTEGRTEHAFYPLIANGLNFSAVVAANDQQAVGVMMALETKGYRVPHDMAVVGFDDATIAQHANPPLTTVRQQPQLLGSIAADTVIELIAGKPVSNAPIYVPTIPIWRQSCGCKDVYTGIKEGHHHHHH | not soluble
MSLKAEFLTPVVTIFDEEGNLDKEGNKKVYDHLIDGGVDGLVIMGSTGEFFNMSMDMQKELIDLVTSHVNKRVKVFIGTSRMCINESIELSNYAHNSGADGVMIISPYYFSLDDDSIELFYSEIAKNTEAEIYLYNYPDRTGYDLSPELTLRLARKHKNIVGYKDTVTLMGHTRDLINTMKIEFPEFKVYSGYDENFIHNLMSGGAGCIGGLSNLIPEVCSKWAEAYNNRDMEKVIEIQKYINKAMDFYLITNPFIPAMKKAMNIRGLQISDYMTAPFVKPNEKQVCEIKKLMNELNIEGHHHHHH | soluble
HPIFQRDGDDLHCEVPVRISQAALGDIVRVATLDGEAEIRIPAETQSGKLFRLRGKGVRSVRSRTEGDLYCRIVVETPVNLTAEQRKLLEQFEMTFAGEDARK | not soluble
MAHHHHHHMEMGGDIVGNIMMLELETFSDEEAAYLTSPDAPHSHIVDEVVEALFENVCTAPRRCSWNTPSVRPEWKEEFRFAGEWWLSMRVLPATVNPNEYHPPLIPFLLRNVQTENQFIADLALHMRQRSSVLSLLHMDHISITPDRASVLLFEGILRNEAQNLECLSLSFCEVGAATLLLILCGLNQCRSIQPQLRYLNLSYNWIDASCSNMMAMLLERTSIRRLSLHGNRFGGSDITSFYDFLLQGCSLLEELDLSYTALTCAEVCALISCLPRMRNLEVLLLDGVEVPDNKAAALSTAIRKSNLIHVSLKGIIACNGEAYLHRIHKACQRNRAARDFLKDRSTLRYFSEGGSFFEAFARRTCEMQRLDDRALPVTYRPFVTNDPSLLPAKNL | not soluble
MGSDKIHHHHHHREEAPNAEADILSCRLPGVVMTTSPIITNNSINIFVGPGTDISSLAPEFTLTPGATIDPPSGTARDFHSPQQYTVTAADGFWKKKYTVSVIDTELATIYNFEDTLGGQKYYIFVEREGEKVVMEWASGNAGYAMTGVPKTADDYPTFQFANGKTGKCLSLVTRSTGFFGSIMGMPIAAGNLFIGSFDVGNAMSNPLKATKFGLPFRHIPTYLAGYYKYKAGDQFTEGGKPVSGKRDICDIYAIMYETSESVPTLDGTNAFTSPNLVSIARIDDAKETDEWTYFKLPFHMLSGKYIDKEKLTAGKYNVAIVFTSSLEGDHFNGAIGSTLLIDEVELIYRSED | not soluble
MGSDKIHHHHHHMMNATPWLTVSRGTAPLLVSIPHTGIDLAGLEPRLVSPWLGRRDCDWWIDKLYDFANDLGATVVHTAISRTVIDVNRDPTGVSLYPGQTTTTLCPTDTFDGDPLYRMGEEPTPSEIDQRRETYFKPYHAALQAEIDRLRGMHEKIVLYDCHSIRSVLPRLFEGTLPVFNLGTNDGKSTDPVLQDKVAAILAATGETWVVNGRFKGGSITRGFGQPQNGVHALQMELSNRGYMREPSEKGSPENWPVPYDPTYAAPIRATLKTILETAIDWARR | not soluble
